Test results: patent US20120009181A1, “Folate Receptor 1 Antibodies and Immunoconjugates and Uses Thereof” (published 2012)

B1: huFR1-48 (antibody, V domains shown)
VH: QVQLVQSGAEVAKPGASVKLSCKASGYTFTNYWMQWIKQRPGQGLEWIGAIYPGNGDSRYTQKFQGKATLTADKSSSTAYMQVSSLTSEDSAVYYCARRDGNYAAYWGQGTLVTVSA
VL: DIQMTQSPSSLSVSVGERVTITCRASENIYSNLAWYQQKPGKSPKLLVYAATNLADGVPSRFSGSESGTDYSLKINSLQPEDFGSYYCQHFWASPYTFGQGTKLEIKR
B2: huFR1-49 (antibody, V domains shown)
VH: QVQLQQSGAVVAKPGASVKMSCKASGYTFTNYWMYWIKQRPGQGLELIGAIYPGNSDTTYNQKFQGKATLTAVTSANTVYMEVSSLTSEDSAVYYCTKRHDYGAMDYWGQGTSVTVSS
VL: DIQMTQSPSSLSVSVGERVTITCRASENIYTNLAWYQQKPGKSPKLLVYTASNLADGVPSRFSGSGSGTDYSLKINSLQPEDFGTYYCQHFWVSPYTFGQGTKLEIKR
B3: huFR1-57 (antibody, V domains shown)
VH: EVQLVESGGGLVQPGGSRRLSCAASGFTFSSFGMHWVRQAPGKGLEWVAYISSGSSTISYADSVKGRFTISRDNSKKTLLLQMTSLRAEDTAMYYCAREAYGSSMEYWGQGTLVTVSS
VL: EIVLTQSPATLSVTPGDRVSLSCRASQNINNNLHWYQQKPGQSPRLLIKYVSQSVSGIPDRFSGSGSGTDFTLSISSVEPEDFGMYFCQQSNSWPHYTFGQGTKLEIKR
B4: huFR1-65 (antibody, V domains shown)
VH: QVQLVQSGAEVAKPGASVKMSCKASGYTFTSYTMHWVKQRPGQGLAWIGYINPISGYTNYNQKFQGKATLTADKSSSTAYMQLNSLTSEDSAVYYCASGGAYGRKPMDYWGQGTSVTVSS
VL: EIVMTQSPATMSTSPGDRVSVTCKASQNVGPNVAWYQQKPGQSPRALIYSASYRYSGVPARFTGSGSGTDFTLTISNMQSEDLAEYFCQQYNSYPYTFGQGTKLEIKR
B5: huMov19 (antibody, V domains shown)
VH: QVQLVQSGAEVVKPGASVKISCKASGYTFTGYFMNWVKQSPGQSLEWIGRIHPYDGDTFYNQKFQGKATLTVDKSSNTAHMELLSLTSEDFAVYYCTRYDGSRAMDYWGQGTTVTVSS
VL: DIVLTQSPLSLAVSLGQPAIISCKASQSVSFAGTSLMHWYHQKPGQQPRLLIYRASNLEAGVPDRFSGSGSKTDFTLNISPVEAEDAATYYCQQSREYPYTFGGGTKLEIKR
B6: huFR1-21 (antibody, V domains shown)
VH: EVQLVESGGDVVKPGGSLKLSCAASGFTFSSYGMSWVRQTPGKGLECVATISSGGSYTYYSPGFQGRFTISRDKSKNTLYLQMSSLKAEDTAMYYCARDGEGGLYAMDYWGQGTSVTVSS
VL: DIQMTQSSSSLSVSVGGRVTITCKASDHINNWLAWYQQKPGKAPKLLISGATSLETGVPSRFSGSGSGKDYTLSISSLQPEDVATYYCQQYWSTPFTFGQGTKLEIKR
B7: huMov19-SPP-DM1 (antibody, V domains shown)
VH: QVQLVQSGAEVVKPGASVKISCKASGYTFTGYFMNWVKQSPGQSLEWIGRIHPYDGDTFYNQKFQGKATLTVDKSSNTAHMELLSLTSEDFAVYYCTRYDGSRAMDYWGQGTTVTVSS
VL: DIVLTQSPLSLAVSLGQPAIISCKASQSVSFAGTSLMHWYHQKPGQQPRLLIYRASNLEAGVPDRFSGSGSKTDFTLTISPVEAEDAATYYCQQSREYPYTFGGGTKLEIKR
modifications: maytansinoid DM1 linked to the antibody through the SPP linker, 3.5-4 DM1 per antibody; attachment residues not stated
B8: huFR1-48-SMCC-DM1 (antibody, V domains shown)
VH: QVQLVQSGAEVAKPGASVKLSCKASGYTFTNYWMQWIKQRPGQGLEWIGAIYPGNGDSRYTQKFQGKATLTADKSSSTAYMQVSSLTSEDSAVYYCARRDGNYAAYWGQGTLVTVSA
VL: DIQMTQSPSSLSVSVGERVTITCRASENIYSNLAWYQQKPGKSPKLLVYAATNLADGVPSRFSGSESGTDYSLKINSLQPEDFGSYYCQHFWASPYTFGQGTKLEIKR
modifications: maytansinoid DM1 linked to the antibody through the SMCC linker; drug load and attachment residues not stated
B9: huFR1-49-SMCC-DM1 (antibody, V domains shown)
VH: QVQLQQSGAVVAKPGASVKMSCKASGYTFTNYWMYWIKQRPGQGLELIGAIYPGNSDTTYNQKFQGKATLTAVTSANTVYMEVSSLTSEDSAVYYCTKRHDYGAMDYWGQGTSVTVSS
VL: DIQMTQSPSSLSVSVGERVTITCRASENIYTNLAWYQQKPGKSPKLLVYTASNLADGVPSRFSGSGSGTDYSLKINSLQPEDFGTYYCQHFWVSPYTFGQGTKLEIKR
modifications: maytansinoid DM1 linked to the antibody through the SMCC linker; drug load and attachment residues not stated
B10: huFR1-57-SMCC-DM1 (antibody, V domains shown)
VH: EVQLVESGGGLVQPGGSRRLSCAASGFTFSSFGMHWVRQAPGKGLEWVAYISSGSSTISYADSVKGRFTISRDNSKKTLLLQMTSLRAEDTAMYYCAREAYGSSMEYWGQGTLVTVSS
VL: EIVLTQSPATLSVTPGDRVSLSCRASQNINNNLHWYQQKPGQSPRLLIKYVSQSVSGIPDRFSGSGSGTDFTLSISSVEPEDFGMYFCQQSNSWPHYTFGQGTKLEIKR
modifications: maytansinoid DM1 linked to the antibody through the SMCC linker; drug load and attachment residues not stated
B11: huFR1-65-SMCC-DM1 (antibody, V domains shown)
VH: QVQLVQSGAEVAKPGASVKMSCKASGYTFTSYTMHWVKQRPGQGLAWIGYINPISGYTNYNQKFQGKATLTADKSSSTAYMQLNSLTSEDSAVYYCASGGAYGRKPMDYWGQGTSVTVSS
VL: EIVMTQSPATMSTSPGDRVSVTCKASQNVGPNVAWYQQKPGQSPRALIYSASYRYSGVPARFTGSGSGTDFTLTISNMQSEDLAEYFCQQYNSYPYTFGQGTKLEIKR
modifications: maytansinoid DM1 linked to the antibody through the SMCC linker; drug load and attachment residues not stated

How the values were obtained:
[1] = target: human folate receptor 1 (FOLR1) (human); experiment: column head 'Apparent affinity (nM)'; method not restated (analyzed as described above: flow cytometry on FOLR1-expressing cells)
[2] = target: human folate receptor 1 (FOLR1) (human); experiment: cell-based or functional assay
[3] = target: human folate receptor 1 (FOLR1) (human); experiment: cell-based or functional assay; remark: listed apart in the source
[4] = target: human folate receptor 1 (FOLR1) (human); experiment: cell-based or functional assay; remark: listed apart in the source

Sequence of human folate receptor 1 (FOLR1) (human) (chain, as listed by the source limits assumed): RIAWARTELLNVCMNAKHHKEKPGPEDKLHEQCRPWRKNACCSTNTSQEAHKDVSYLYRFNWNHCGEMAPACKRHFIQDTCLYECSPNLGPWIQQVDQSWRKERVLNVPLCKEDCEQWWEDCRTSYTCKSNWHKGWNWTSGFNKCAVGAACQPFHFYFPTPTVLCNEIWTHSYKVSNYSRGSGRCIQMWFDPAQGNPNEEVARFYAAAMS

Binder	Kd [1] [nM]	huAb-smcc-DM1 activity on KB in vitro [4] [nM]	further results
B1	0.13	–	–
B2	0.08	–	–
B3	0.14	–	–
B4	0.15	–	–
B5	0.06	–	–
B6	–	–	EC50 of ADCC activity on IGROV-1 cells [2]: 0.11 ng/mL
B7	–	–	IC50, nM (n = 3), Ab-based; in vitro cytotoxicity on IGROV-1 cells [3]: 0.1 nM; IC50, nM (n = 3), Ab-based; in vitro cytotoxicity on JEG-3 cells [3]: 0.2 nM; IC50, nM (n = 3), Ab-based; in vitro cytotoxicity on KB cells [3]: 0.1 nM
B8	–	0.05	–
B9	–	0.1	–
B10	–	0.1	–
B11	–	0.1	–
